In PMC7042235, “Structural basis for two-way communication between dynein and microtubules” (Nature Communications, 2020):

Biological target: T1, microtubules (polymerized porcine tubulin) (porcine, UniProt P02550 1-451; P02554 1-445)
T1 construct: alpha-tubulin of porcine tubulin; beta-tubulin of porcine tubulin; Polymer of alpha/beta-tubulin dimers; 14-protofilament MTs were selected for cryo-EM; The species is stated only for the co-sedimentation assay; also called MT; MTs; source: porcine tubulin, polymerized (stabilised with 10 uM paclitaxel for co-sedimentation; GMPCPP-MT for cryo-EM)
Assay: co-sedimentation; purified MTBDs (1-32 uM) mixed with 5 uM paclitaxel-stabilised porcine MTs; 100 mM PIPES pH 6.8, 50 mM NaCl, 2 mM MgCl2, 1 mM EGTA; 210,000 x g, 25 °C, 10 min; pellets on SDS-PAGE, densitometry, one-site curve fitting
Conditions: both partners purified

B1: MTBD-Low, MTBD(S3097C/V3222C) (domain or fragment)
chain: KCIQDIEPTILEAQRGVKNIKKQQLTEIRSMVNPPSGVKIVMEAVCAILGYQFSNWRDIQQFIRKDDFIHNIVHYDTTLHMKPQIRKYMEEEFLSDPNFTYETINRASKACGPLYQWVNAQINFSKCLENVDPLRQE
modifications: intramolecular disulfide bond between C3097 (CC1) and C3222 (CC2)
- Kd: > 200 µM
